The text below walks through data of the DeepSol protein solubility set.

A short description of this series: soluble on expression in E. coli; label from the status in PepcDB or PDB records.
Regarding “MGSDKIHHHHHHMLSLRHSCPRRALKVPNPFVEEAGPQPPKVLKAPVEIQANLRLLQDSRDSLLITFADRNQRFQSFLVDIDRDRGMVALDELIPNTGERFLQNGEAFRVEAFHEGVRIAWECERPVQFGEHDGVPCYWAALPAEVLYHQRRNAYRASIKQSQPIAAEIAGEKLRAPLSGQLLDISATGAKLRFAGNVAERLHPGEIYEDFSAQLPQGAISSAIELRHVRFDEKLDATFAGVRFSEMSGLAQRQVDRFVYQLQREARRFEKDELF”, the “soluble on expression in E. coli” value was “not soluble”.

“MASNDPGNEVSSYSPTSPSYVKFFTQSNLEKLPKYKEKKAASAKQTAPNNSNGGSEEEITCALDYLIPPPMPKNQQYRAFGSIW”: the “soluble on expression in E. coli” value is “soluble”.

Turning to “MAHHHHHHMHLIYLKILFFSLLLDTFISSHTNIPRINNVTPKNVAINISPVVPIPDVITLDYIKENLEQIRLIKDIIIKGKLKKLKVLKQKCKKNKKDKEIKNEIENLEREIMDTRKLCNNYIKNEIKEIKSLKDQIVKDKIEKDRWKKDLLIDYELKRLMYKPDIERLKQLNEEYKKEELRVAKLKDNMFKIYQFILYLIPNTIYYTIEFINNIPEVELSLPKFLKKKKKKKVNHFSHYGVPYMK”, the “soluble on expression in E. coli” value is recorded as “soluble”.

Consider “MGSDKIHHHHHHMKEIVTVGVDIAKNVFQVHGVDAQGVVVVRRKLRRSKVSGFFESLPPCLIGIEACATAHHWARHLMALGHEVKLMPAAYVKPYVKRQKNDAADAEGICEAVQRPTMRFVPVKSKEQQGVLMLHRARELLVRQRTMLINALRAHLAELGIATRLGPMGVKDAVAVIEGIDQHLIPEIVQHALSPLCDQLRHVHTKIEEMDRQILEWHRSSALSQRLATIPGIGPVTASAIAATITDVSSFRSGRQLAAWIGLVPRQSSSGGKERLGRITRQGDPYIRRLLVIGAAL”, for which the “soluble on expression in E. coli” value was “not soluble”.

“AIAANQWERFVWLALDAPDTIVERAPLVIQVAWLEDTQLRLWEPAAREPLKRGDDAALRTYLRDAAECPWDPATDPSLVREFLLSRAVDCAFRDELAEHAGCVVDEELDTDFIAETMALSEELVRADDKKLPLETQDLDPASFDLLRAELALPAASAREVLRAGAHWAITRWPPREQWLPPCSRADAPATTALAATGGVPSEAQATPEPMCTETTVSDATCALPSGVYAQLQRIGRQLHNEELLYTQHLLNAALERAQTMTANPRTEARLGRVGH”: the “soluble on expression in E. coli” value is recorded as “soluble”.

On to “MDLSALREDFPLFAQRPELVYLDSAATSQKPRRVIEALRRYYETLNANVHRGAYRLSAEATEAYEEARRRLARFLNAEPKEIVFVRNTTEAMNLVAYAWGLRNLKEGDEVLVTEMEHHAGLVPWHLVAGLTGAKVKAIPLTEEGRLDLSALEDLLTERTRVVSLVHMSNVLGTINPVAEIARRAKEAGALVVVDGAQSAPHLPVDVKALGADFFALSGHKMLGPTGAGVLWGRYEVLEGMMPFLGGGEMILEVHVDRSTYAPPPQRFEAGTPPIAEAIALGEAACYLMEVGMEKVFAHDRALLDYALKRLEEVPRLRVYGPKGLDRGGVIPFTLGRLHAHDLATFLDQEGIAVRAGHHCAQPLHRKLGLAATARASFYLYNTKEEVDRFVEALLRIEAKYRAWL”, for which the “soluble on expression in E. coli” value was “soluble”.

For “MSARILVVDDIEANVRLLEAKLTAEYYEVSTAMDGPTALAMAARDLPDIILLDVMMPGMDGFTVCRKLKDDPTTRHIPVVLITALDGRGDRIQGLESGASDFLTKPIDDVMLFARVRSLTRFKLVIDELRQREASGRRMGVIAGAAARLDGLGGRVLIVDDNERQAQRVAAELGVEHRPVIESDPEKAKISAGGPVDLVIVNAAAKNFDGLRFTAALRSEERTRQLPVLAMVDPDDRGRMVKALEIGVNDILSRPIDPQELSARVKTQIQRKRYTDYLRNNLDHSLELAVTDQLTGLHNRRYMTGQLDSLVKRATLGGDPVSALLIDIDFFKKINDTFGHDIGDEVLREFALRLASNVRAIDLPCRYGGEEFVVIMPDTALADALRIAERIRMHVSGSPFTVAHGREMLNVTISIGVSATAGEGDTPEALLKRADEGVYQAKASGRNAVVGKAAHHHHH”, the “soluble on expression in E. coli” value is recorded as “soluble”.

As for “MANELATEGASGVDAPRIGPRLKAARQAQRLTLDDLAASCGITKGYLSKIERDHASASVATLVRICAALNIPVGSLFESSAAGEVVRADNYPPISFGGERMAEFLLTPFGERRIQSLLSRIEPGGGSGSETYELPVDVAFVYVVSGRICISFNGPGAGEDVSLATGDAFTFSPQLPHSFRALGDDTATVLWILTPALPDDVRPTSR”, the “soluble on expression in E. coli” value is “not soluble”.

As to “MQKTIYDVSFINGEVKTFTPLMLDNVMAEKELVARGGNIRENSIEFMAILTHKVCRRTYRENTPLDLDIFLESVLDIDTRVEEVTTFPEQNLDAHGPEPRHRT”, the “soluble on expression in E. coli” value is given as “not soluble”.

Take “MGSDKIHHHHHHMIISWNTTNKCNMHCEHCYRDSGKGAEGELSTTEGKKLIDEIAKAGFKIMIFSGGEPLLRDDIYELIGYASKIGLRCVIGSNGTLITLEAAQKLKKAGVMRAGISLDSLKAKKHDSFRNYSGAWENTIIGIENLKKAGISFQINTTVMKWNKDEVKDITDFGANLGASAHHVFFLVPTGRGAELQEQILSKNDYENLIKEIMLKQAHANIEIKPTCAPQFVRIAEQNNIKTRFKKGCLAGIKYCIISPTGNVQPCAYLNFSAGNVKQKSFGEIWRESPILKKLRTMEYGEKCGTCKYKNKCGGCRARAAFYNNGDIMASDTWCIYNEYEENKING”: the “soluble on expression in E. coli” value is reported as “not soluble”.

In the case of “MTETDFKLKYWGNQEQDYILPTVGLGREYLVLGKLLISLSKWRAKGLIDFDVYLRPTGVGTLTNTINYEYYKGLEDKYDLTLYIRAKDSYYPLLWIDITGSSWTEEQSKERYGESIYAILSVKVETAKKYDVLGRVFFIHYNDTEDKLKCISALQILNLERQNKIKKDKFERGAKSEYYLIPTSYWKNLTELRIALRGFYQSFKEYLARSNK”, the “soluble on expression in E. coli” value is listed as “soluble”.

For the sequence “MGSDKIHHHHHHMIVALIIHRPLTKRQKMVAYDVEQLEGKVRGALLQGTNSGKTGVIVLGGSSGRVDTTRAGLFANTGARALALQWFGGANQPPGICEIPLETFVDATDLLISRGCDRTVFVGTSKGAEAALLASTIDHRINVVIAISPSSVVLGNIGAGVDGISWPERSSWSFKRSPLDFVPADINWQKDYRDGLVSYRSFFEKCLSNDVQLNERARIPVESSPADLILVAGGDDALWPSGYFARQILQSRQAHGRQATLIFDKDAGHRILLPGETTQRSKLHAHGGSDEADAKLGQNAWRAIRELL”, the “soluble on expression in E. coli” value is “not soluble”.

Consider “MQSSKVVLLEPRTYSEAQGIADHLKGRRAVVINLQRMSTDQAVRIVDFLSGTVYAIGGDIQKIGPKTFMCTPENVDIVGAISELFGEEEETNIKRWLEHHHHHH”, for which the “soluble on expression in E. coli” value is reported as “not soluble”.

For the sequence “MKWEMGLQEEYIELIKAGKKKIEGRLYDEKRRQIKPGDIIIFEGGKLKVKVKGIRVYSSFKEMLEKEGIENVLPGVKSIEEGVKVYRQFYDEEREKKYGVVAIEIEPIE”, the “soluble on expression in E. coli” value was “soluble”.

With “QLPCNLSPLNWVGMQHIDLPTVIDTANQTVNTKVDVYVNLPKSSVKGIHMSRLYHLINHLSVLNTMSIKSVLKQMIDSHQDCGTTAAKIVFKFDLLLKRDAIVSTALSGWKSYPVIIEASIINELFNIEYKLDISYSSTCPCSAALSRQIIKNGFKADFSSQNLIPSADIEAWLEQYATLATPHSQRSIATVVVQPFDYAHDINFVDLIDSIENTLKTPTQTAVKRADEQAFAKLNGENLMFVEDAARRLKMLLDQKYKFWSAQVVHQESLHPHDAIAVAISS”, the “soluble on expression in E. coli” value is recorded as “not soluble”.

Consider “MSYNYVVTAQKPTAVNGCVTGHFTSAEDLNLLIAKNTRLEIYVVTAEGLRPVKEVGMYGKIAVMELFRPKGESKDLLFILTAKYNACILEYKQSGESIDIITRAHGNVQDRIGRPSETGIIGIIDPECRMIGLRLYDGLFKVIPLDRDNKELKAFNIRLEELHVIDVKFLYGCQAPTICFVYQDPQGRHVKTYEVSLREKEFNKGPWKQENVEAEASMVIAVPEPFGGAIIIGQESITYHNGDKYLAIAPPIIKQSTIVCHNRVDPNGSRYLLGDMEGRLFMLLLEKEEQMDGTVTLKDLRVELLGETSIAECLTYLDNGVVFVGSRLGDSQLVKLNVDSNEQGSYVVAMETFTNLGPIVDMCVVDLERQGQGQLVTCSGAFKEGSLRIIRNGIGIHEHASIDLPGIKGLWPLRSDPNRETYDTLVLSFVGQTRVLMLNGEEVEETELMGFVDDQQTFFCGNVAHQQLIQITSASVRLVSQEPKALVSEWKEPQAKNISVASCNSSQVVVAVGRALYYLQIHPQELRQISHTEMEHEVACLDITPLGDSNGLSPLCAIGLWTDISARILKLPSFELLHKEMLGGEIIPRSILMTTFESSHYLLCALGDGALFYFGLNIETGLLSDRKKVTLGTQPTVLRTFRSLSTTNVFACSDRPTVIYSSNHKLVFSNVNLKEVNYMCPLNSDGYPDSLALANNSTLTIGTIDEIQKLHIRTVPLYESPRKICYQEVSQCFGVLSSRIEVQDTSGGTTALRPSASTQALSSSVSSSKLFSSSTAPHETSFGEEVEVHNLLIIDQHTFEVLHAHQFLQNEYALSLVSCKLGKDPNTYFIVGTAMVYPEEAEPKQGRIVVFQYSDGKLQTVAEKEVKGAVYSMVEFNGKLLASINSTVRLYEWTTEKDVRTECNHYNNIMALYLKTKGDFILVGDLMRSVLLLAYKPMEGNFEEIARDFNPNWMSAVEILDDDNFLGAENAFNLFVCQKDSAATTDEERQHLQEVGLFHLGEFVNVFCHGSLVMQNLGETSTPTQGSVLFGTVNGMIGLVTSLSESWYNLLLDMQNRLNKVIKSVGKIEHSFWRSFHTERKTEPATGFIDGDLIESFLDISRPKMQEVVANLQYDDGSGMKREATADDLIKVVEELTRIH”, for which the “soluble on expression in E. coli” value is reported as “soluble”.

“MGSDKIHHHHHHMEYIVRTHKIGIYEKALPKNLSWQDRLSIAKACGFDFVEISIDETDERLARLDWSKAERIELVTAIISTGITIPSMCLSGHRRFPFGSRDEATRQKAFEIMKKAIQLAVDLGIRTIQLAGYDVYYEEQDEGTIQRFQQGLEWAVKLAASHQVTIAVEIMDTQFISSISRWKKWDNIIRSPWFTVYPDLGNLSAWNENVSEELKLGIDKISAIHLKDTYKVTTTSKGQFRDVPFGAGCVDFVQCFRILSELNYRGAFLVEMWTEKAEEPITEIINARRWIEQKMKEGGFQC”: the “soluble on expression in E. coli” value is given as “not soluble”.

“MTDEKKDDRPVYQAACHCGTVRFELRLTDGLRTARRCNCSLCRMRGAVAVSANLGDITVTQGEEALTLYQFHTREAKHYFCSRCGIYTFHQRRSAPDQYGVNVACIEGMSPFDFADVPVSEGRVHPKDRVDGGVGVAGWLRYEGNPEWGQGLEHHHHHH”: the “soluble on expression in E. coli” value was “soluble”.

Regarding “MAQVPPPMTQVVTSAPPPTAAATVVAGAVAGQPQAVIQQGPPPTNIGYPPNATYSMASLYIGDLHPDVSEAMLFEKFSMAGPVLSIRVCRDNTSRLSLGYAYVNFQQPADAERALDTMNFEVIHGRPMRIMWSQRDPAARRAGNGNIFIKNLDRVIDNKSVYDTFSLFGNILSCKVATDDEGNSKGYGFVHFETEHSAQTAIEKVNGMLLSDKKVYVGKFQPRAQRMKELGESGLKYTNVFVKNFGEHLDQEKLSAMFSKFGEITSAVVMTDAQGKPKGFGFVAFADQDAAGQAVEKLNDSILEGTDCKLSVCRAQKKSERSAELKRKYEALKQERVQRYQGVNLYVKNIEEDLNDDGLRDHFSSFGTITSAKVMVDENGRSKGFGFVCFEKPEEATAAVTDMNSKMIGAKPLYVALAQRKEDRRAQLASQYMQRLATLRMGQQASGVPAMTQLYQPGQQGYFVPNPMNAQGRPGFQPQSAQIRGPPGQRVFQNQMFMQYPFNQRQVYPQQQGRPPMRTNDGRPQYGMAPRPAGAPRVGGPGVQMGGAPIRQQGPAPRGAPQKPFYQGPPRQQQPQQHSQQPAQQPGQQGQGQSGIVIHGQETLTSHMLAQAAPQEQKQLLGERIYALIEKMFPNHKEAGKITGMMLEIDNAELIMMLQDAELFRSKVEEAFGVLTNAQSAAASTSAPTAKN”, the “soluble on expression in E. coli” value was “not soluble”.
